The values that follow come from US20210032331A1 (PHANES THERAPEUTICS, published 2021).

The chains are these.
T1: human LAG-3(ECD)-huFc (human, UniProt P18627 23-450)
T1 construct: also called Fc-tagged human LAG-3(ECD)-huFc; not shown: human Fc (huFc) at the C-terminus
T1 sequence: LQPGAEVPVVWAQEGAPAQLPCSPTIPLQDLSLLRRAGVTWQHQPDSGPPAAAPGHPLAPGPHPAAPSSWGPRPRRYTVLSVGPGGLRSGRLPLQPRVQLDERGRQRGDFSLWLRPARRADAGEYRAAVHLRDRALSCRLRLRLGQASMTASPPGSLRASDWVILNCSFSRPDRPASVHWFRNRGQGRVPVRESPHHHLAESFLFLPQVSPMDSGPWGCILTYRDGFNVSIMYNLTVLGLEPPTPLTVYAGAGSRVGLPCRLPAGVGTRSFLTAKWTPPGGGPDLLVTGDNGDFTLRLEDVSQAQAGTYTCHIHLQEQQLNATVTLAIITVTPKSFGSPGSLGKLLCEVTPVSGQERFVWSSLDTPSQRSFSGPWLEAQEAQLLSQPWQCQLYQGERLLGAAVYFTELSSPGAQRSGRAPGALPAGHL

T2: human LAG-3(ECD)-mFc (human, UniProt P18627 23-450)
T2 construct: also called hLAG3-mFc; human LAG-3 extracellular domain (ECD) fused to mouse Fc; not shown: mouse Fc
T2 sequence: T1 sequence

B1: B1 (antibody, V domains shown)
VH: DVQLQESGPGLVKPSQSLSLTCTVTGYSITSDYAWNWIRQFPGNKLEWMGYIDYSGITSYNPSLKSRISITRDTSKNQFFLQLNSVTTEDTATYYCAREDHYDLAWFAYWGQGTLVTVSA
VL: DIQMTQTTSSLSASLGDRVTISCRASQDISNYLNWYQQKPDGTVKLLIYYTSRLHSGVPSRFSGSGSGTDYSLTISNLEPEDIATYYCHQYSNRPPTFGGGTKLEIK
notes: Mouse mAb from hybridoma; also called mouse anti-LAG-3 mAb B1
B2: B13 (antibody, V domains shown)
VH: EVMLVESGGGLVKPGGSLKVSCAASGFTFSIYAMCWVRQTPEKRLEWVATISSGGSNTYYPDSVKGRFTISRDNAKNTLYLQMSSLRSEDTAVYYCARGDVYYDYDGRGFDYWGQGTTLTVSS
VL: DIVMTQSPSSLTVTAGEKVTMSCKSSQSLLNSGNQKNYLTWYQQKPGQPPKMLIYWASTRESGVPERFTGSGSGTDFTLTINSVQAEDMAIYYCQNDYGYPLAFGAGTRLELK
notes: Mouse mAb from hybridoma; also called mouse anti-LAG-3 mAb B13
B3: B3 (antibody, V domains shown)
VH: QVQLQQPGAELLKPGASVKMSCKASGYTFTSYDIHWLKQTPGQGLEWIGAIYPENGDSSYSQKFKDKATLTADKSSNTAYIHLSSLTSEDSAVYYCARGGYYDYVWFPYWGQGTLVTVSA
VL: DVVMTQTPLSLPVSLGDQASISCRSSQSILYSNGYTYLEWYLQKPGQSPKLLIYGVSNRFSGVPDRFSGSGSGTDFTLKISRVESEDMGVYYCFQGTHVPLTFGAGTKLELK
notes: Mouse mAb from hybridoma; also called mouse anti-LAG-3 mAb B3
B4: B4 (antibody, V domains shown)
VH: B3 VH with D66G, Y102F
VL: B3 VL with L30V, S85A
notes: Mouse mAb from hybridoma; also called mouse anti-LAG-3 mAb B4
B5: B15 (antibody, V domains shown)
VH: EVQLQQSGAELVRPGASVKLSCTASGFNIKDDYMFWVKQRPEQGLEWIGWIDPENGDTEYASKFQGKATITADTSSNTAYLQLSSLTSEDTAVYYCTLYAYWGQGTLVTVSA
VL: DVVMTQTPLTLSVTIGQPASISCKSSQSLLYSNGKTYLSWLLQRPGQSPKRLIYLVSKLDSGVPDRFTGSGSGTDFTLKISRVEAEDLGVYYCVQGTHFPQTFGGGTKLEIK
notes: Mouse mAb from hybridoma; also called mouse anti-LAG-3 mAb B15
B6: BG29 (human IgG4 heavy chain and kappa light chain chimeric) (antibody, V domains shown)
VH: QIQLQQSGPEVVKPGASVRISCKASGYTFSDYHINWVKQKPGQGLEWIGWIYPGRGDPEYNEKFKGKATLTVDRSASTAYMQLSSLTSEDTSVYFCEIYYGNYIDYWGQGTTLTVSS
VL: DIVMTQAAPSVPVTPGESVSISCRSSKSLLHSDGKTYLYWFLQRPGQSPQRLIYYMSNLASGVPDRFSGRGSGTDFTLRISRVEAEDVGVYYCMQSLEYPWTFGGGTKLEIK
notes: Chimeric: mouse VH and VL with human IgG4 heavy chain and kappa light chain constant regions; also called chimeric BG29

Substitutions are numbered along the chain they refer to.

In one experiment the target is T1, human LAG-3(ECD)-huFc. Briefly: SPR (Biacore): mAb from hybridoma supernatant captured on anti-mouse IgG CM5 chip, human LAG-3(ECD)-huFc 50-400 nM injected. The protocol: Anti-mouse IgG antibodies were immobilized via amine coupling on CM5 chip surface. Anti-LAG-3 mAbs in hybridoma supernatants were captured on the chip surface and a series of concentrations (50-400 nM) of human LAG-3(ECD)-huFc protein were injected and passed through the captured surface. The on and off rates for antibody-antigen binding were measured, curve fitted and calculated.
The Kd is a measure of binding affinity in units of concentration. High values mean weaker binding, low ones tighter binding. For the molecule B1, the Kd amounted to 1.21 nM.

As to B2, the Kd worked out at 8.17 nM.

B3: the Kd was found to be 1.53 nM.

In the case of B4, the affinity, expressed as Kd, was 0.217 nM.

The target in another experiment is T2, human LAG-3(ECD)-mFc. In words: FACS blocking assay: mAb preincubated with LAG-3(ECD)-mFc (1 µg/mL), blocked ligand MHC class II on Daudi cells, PE anti-mouse Fc. The protocol: FIGS. 4A-4D show inhibition of human LAG-3 binding to MHC class II molecules by select anti-LAG-3 mAbs. An in vitro binding assay was performed using recombinant LAG-3(ECD)-mFc and Daudi cells which express human MHC class II molecules. […] The binding of LAG-3(ECD)-mFc to Daudi cells in the presence of anti-LAG-3 mAbs or a control mAb was analyzed by FACS.
Human Daudi cells were cultured in RPMI+10% FBS. Human LAG-3(ECD)-mFc protein (human LAG-3 ECD fused to mouse Fc) at 1 μg/ml final concentration was incubated with purified mouse, humanized, or chimeric anti-LAG-3 mAbs at various concentrations for 15 minutes at 4° C. The mixture was then added to 100,000 human Daudi cells in a 96-well round bottom plate, mixed and incubated for 15 minutes on ice. Cells were then centrifuged at 1,000 rpm for 5 minutes and washed with FACS buffer (PBS supplemented with 5% BSA) three times. The cells were then incubated with PE-conjugated goat anti-mouse Fc polyclonal antibodies on ice for 15 minutes, washed with FACS buffer three times and then resuspended in FACS buffer containing 0.1 μg/ml PI (propidine iodine) for live/dead cell gating. Cells were then run through the FACS Caliber instrument and the data were analyzed by the Flowjo software. Results of the inhibition of LAG-3 binding to Daudi cells by chimeric mAbs B1C, B3C, B4C, BSC, B9C, and B11C are shown in FIG. 4B.
As to B5, the binding result is reported as “binds”.

For the molecule B6, the “IC50 (read off the curve)” value is roughly 1 nM.

In the next experiment the target is T3, B5/IgG4.
T3 construct: Chimeric: mouse VH and VL with human IgG4 heavy chain and kappa light chain constant regions; also called B5 (human IgG4 heavy chain and kappa light chain chimeric)
Briefly: ELISA peptide competition: peptide preincubated with B5/IgG4, competitor hLAG3-mFc; peptide at 600-fold hLAG3-mFc; capture on anti-human IgG, anti-mouse IgG-HRP. The protocol:
(§1) FIGS. 5A-5D show the effect of competition peptides on LAG-3 binding to anti-LAG-3 mAbs. […] B5/IgG4 was preincubated with a competition peptide for 30 minutes. Then human LAG-3 extracellular domain (ECD) fused to mouse Fc (hLAG3-mFc) was added (the final peptide concentration was 600-fold that of hLAG3-mFc) and the mixture was incubated for 60 minutes before being added to an ELISA plate coated with anti-human IgG. The incubation was carried out at 4° C. overnight. After washing, the hLAG3-mFc bound to the immobilized B5/IgG4 on the ELISA plate was detected by adding anti-mouse IgG conjugated to horseradish peroxidase (HRP) and incubating for 60 minutes. Then, after washing, the ELISA was developed using One-step Detection Solution and measured as the absorbance at 450 nm.
(§2) Anti-human IgG in carbonate coating buffer was coated on an ELISA plate at 4° C. (50 μL/well at 1 μg/mL) overnight. In each well of a separate plate, a chimeric version of a given anti-LAG-3 mAb (50 μL/well at 1.4 nM) and a competition peptide (50 μL/well at various concentrations as indicated in the figures) were mixed and incubated for 30 minutes at room temperature. Then human LAG-3 extracellular domain (ECD) fused to mouse Fc (hLAG3-mFc) was added to each well (50 μL/well at 2 nM) and the final mixture was incubated at room temperature for 60 minutes before added to the ELISA plate (50 μL/well) for another 60-minute incubation. The final incubation after adding the mixture to the ELISA plate was also performed at 4° C. overnight in some assays. The plate was washed and the binding of hLAG3-mFc to the immobilized anti-LAG-3 mAb was detected by adding anti-mouse IgG conjugated to horseradish peroxidase ([…]) (ThermoFisher Scientific, Cat#: A16084; Waltham, Mass.) and incubating for 60 minutes.
In general terms: ELISA stands for enzyme-linked immunosorbent assay.
As for PPAAAPGHPLA (also called peptide 2-12) [2-12], the binding result is “binds”.

With QPDSGPPAAAPGHPLA (also called peptide Q16) [Q16], the binding result is given as “binds”.

Consider SGPPAAAPGHPLAP (also called peptide S14) [S14], for which the binding result is “binds”.

In the case of PDSGPPAAAPGHPLAP (also called peptide P16) [P16], the binding result is listed as “binds”.

Consider QPDSGPPAAAPGHPLAP (also called peptide Q17) [Q17], for which the binding result was “binds”.

Consider DSGPPAAAPGHPLAP (also called peptide D15) [D15], for which the binding result was “binds”.

The target of the next experiment is T4, B12 (human IgG1 heavy chain and kappa light chain chimeric).
T4 construct: Chimeric: mouse VH and VL with human IgG1 heavy chain and kappa light chain constant regions
T4 sequence (VH, as listed by the source): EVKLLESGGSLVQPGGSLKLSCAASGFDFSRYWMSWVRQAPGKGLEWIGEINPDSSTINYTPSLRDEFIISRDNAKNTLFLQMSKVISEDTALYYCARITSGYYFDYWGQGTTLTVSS
In words: ELISA peptide competition: peptide preincubated with chimeric IgG1 B12, competitor hLAG3-mFc; peptide at 600-fold hLAG3-mFc; capture on anti-human IgG, anti-mouse IgG-HRP. Here is the method: as §1, §2
For QPDSGPPAAAPGHPLA (also called peptide Q16) [Q16], the binding result is given as “binds”.

Consider SGPPAAAPGHPLAP (also called peptide S14) [S14], for which the binding result is “binds”.

Consider PDSGPPAAAPGHPLAP (also called peptide P16) [P16], for which the binding result is “binds”.

Consider QPDSGPPAAAPGHPLAP (also called peptide Q17) [Q17], for which the binding result is reported as “binds”.

Take GPPAAAPGHPLAPGPHPAA (also called peptide 1-19) [1-19]: the binding result is listed as “binds”.

Consider DSGPPAAAPGHPLAP (also called peptide D15) [D15], for which the binding result was “binds”.

The target of another experiment is T5, B7/IgG4.
T5 construct: Chimeric: mouse VH and VL with human IgG4 heavy chain and kappa light chain constant regions; also called B7 (human IgG4 heavy chain and kappa light chain chimeric)
Briefly: ELISA peptide competition: peptide preincubated with B7/IgG4, competitor hLAG3-mFc; peptide at 600-fold hLAG3-mFc; final incubation 60 min at room temperature; anti-mouse IgG-HRP. The protocol:
B5/IgG4 was preincubated with a competition peptide for 30 minutes. Then human LAG-3 extracellular domain (ECD) fused to mouse Fc (hLAG3-mFc) was added (the final peptide concentration was 600-fold that of hLAG3-mFc) and the mixture was incubated for 60 minutes before being added to an ELISA plate coated with anti-human IgG. The incubation was carried out at 4° C. overnight. After washing, the hLAG3-mFc bound to the immobilized B5/IgG4 on the ELISA plate was detected by adding anti-mouse IgG conjugated to horseradish peroxidase (HRP) and incubating for 60 minutes. Then, after washing, the ELISA was developed using One-step Detection Solution and measured as the absorbance at 450 nm.
The assay condition is the same as in FIG. 5A except that the final incubation of the mAb, the competition peptide, and hLAG3-mFc on the ELISA plate was performed at room temperature for 60 minutes instead of incubation at 4° C. overnight.
Anti-human IgG in carbonate coating buffer was coated on an ELISA plate at 4° C. (50 μL/well at 1 μg/mL) overnight. In each well of a separate plate, a chimeric version of a given anti-LAG-3 mAb (50 μL/well at 1.4 nM) and a competition peptide (50 μL/well at various concentrations as indicated in the figures) were mixed and incubated for 30 minutes at room temperature. Then human LAG-3 extracellular domain (ECD) fused to mouse Fc (hLAG3-mFc) was added to each well (50 μL/well at 2 nM) and the final mixture was incubated at room temperature for 60 minutes before added to the ELISA plate (50 μL/well) for another 60-minute incubation.
On to AAPSSWGPRPRRY (also called peptide 18-30) [18-30], for which the binding result is “binds”.

In the case of PHPAAPSSWGPRP (also called peptide 15-27) [15-27], the binding result is “binds”.

In the case of PHPAAPSSWGPRPR (also called peptide 15-28) [15-28], the binding result is “binds”.

For PAAPSSWGPRPRRY (also called peptide 17-30) [17-30], the binding result was “binds”.

Turning to APSSWGPRPRRY (also called peptide 19-30) [19-30], the binding result is listed as “binds”.

Take PHPAAPSSWGPRPRR (also called peptide 15-29) [15-29]: the binding result is on record as “binds”.
